# Assay results taken from US20110158954A1, “METHOD FOR PRODUCING GAMMA DELTA T CELL POPULATION” (priority 2007, published 2011).
# Columns and labels:
# [1] = test system: Daudi cells; test: Cytotoxic activity of cultured γδ T cell population, Calcein-AM release; format: cell-based, human; settings: γδ T cells expanded 14 days with pamidronate on immobilized FN fragment; target cells Daudi; E/T 30; 4 hours
# Description: (§1) The cytotoxic activity was determined for the cells on the fourteenth day from the initiation of culture prepared in Example 3-(1). The cytotoxic activity was evaluated by a method for assaying cytotoxic activity using Calcein-AM [Lichtenfels R. et al., J. Immunol. Methods 172(2), 227-239 (1994)]. […]
# (§2) The cells on the fourteenth day from the initiation of culture prepared in Example 3-(1) were diluted with an RPMI 1640 medium containing 5% (v/v) human AB serum, 0.1 mM NEAA mixture, 1 mM sodium pyruvate (all manufactured by Cambrex), 2 mM L-glutamine, 10 μg/mL streptomycin sulfate (hereinafter referred to as “5HRPMI”) as effector cells, so as to have a concentration of 3×10^6 cells/mL. […] Upon the addition, the ratio of the effector cells (E) to the Calcein-labeled target cells (T) is expressed as an E/T ratio, and the measurements were made at an E/T ratio of 30. […] Thereafter, 100 μL of the culture supernatant was collected from each well, and the amount of Calcein released into the culture supernatant was determined with a fluorescence plate reader (Mithras LB 940, manufactured by BERTHOLD TECHNOLOGIES) (excited at 485 nm/measured at 535 nm). The “cytotoxic activity (%)” was calculated in accordance with the following formula.
# (§3) Cytotoxic Activity (%)={(Measured Value in Each Well−Minimum Released Amount)/(Maximum Released Amount−Minimum Released Amount)}×100 […]
# [2] = test system: K562 cells; test: as above; format: cell-based, human; settings: γδ T cells expanded 14 days with pamidronate on immobilized FN fragment; target cells K526 (so in the source); E/T 30; 4 hours
# Description: as §1, §2, §3
substance,measurement,setting,value
"CH-296: polypeptide comprising a cell binding domain, a heparin binding domain and a CS-1 domain of fibronectin (SEQ ID NO: 13)",Cytotoxic Activity (%),[1],33.23%
same,Cytotoxic Activity (%),[2],25.45%
